Experimental data reported in patent US11541126B1, “Anti-ASGR1 antibody TLR8 agonist comprising conjugates and uses thereof” (Silverback Therapeutics, Inc., priority 2020, dated 2023).
“Also recorded” adds a separate entry of the source.

Tests used:
AAV-HBV transduced mice = experiment: Viral DNA and HBsAg antigen in mouse AAV-HBV model (replicated experiment); type: in vivo
HBV = experiment: AAV-HBV mouse model for chronic HBV infection: viral DNA, HBsAg, anti-HBsAg seroconversion; type: in vivo
Description: C57BL/6 mice were transduced with AAV8-HBV1.2 vector and sorted into treatment groups (n=10). Animals received 0.5 mg/dose of ASGR1-TLR8-S, 0.5 mg of unconjugated mASGR1 mAb or vehicle, sc QWx5 beginning d0 (black arrows). In FIG. 8A, dotted line is LLOQ for HBsAg ELISA. In FIG. 8B, average plasma anti-HBsAg IgG was determined by ELISA. p-values determined by T-test by comparison to vehicle group.
An in vivo mouse model for chronic HBV to examine the therapeutic effect of ASGR1-TLR8 agonists of the instant disclosure. […] Like TLR8 in humans, and in contrast to TLR7 in humans, TLR7 in mice is expressed in myeloid cells, like macrophages. Thus, for in vivo murine experiments, an anti-ASGR1-TLR7 agonist conjugate was generated as a surrogate for human anti-ASGR1-TLR8 agonist conjugates. In addition, the anti-human ASGR1 antibody 4F3 was “murinized” so as to bind to mouse ASGR1.
On day 0 animals were sorted into viral load-balanced treatment groups of 10. […] The experiment was ended on day 35. Weekly plasma samples were assessed for viral DNA and antigens, including samples from post-transduction (i.e., infection) but pre-treatment. HBV DNA in mouse plasma was isolated with QIAAMP® 96 DNA Blood Kit following the manual and quantified by qPCR. The standard curve DNA of 10^7 copies/μL was prepared by 60-fold dilution of 5 ng/μL pAAV2-HBV1.3 plasmid DNA, then serially diluted 10-fold with AE buffer from 10^7 to 10 copies/μL. A 2 μl volume from samples was added to standard qPCR assay mixtuRes. The PCR mixture and samples or plasmid DNA standard were added to 384-well optical reaction plates. PCR was run at 95° C. for 10 min for 1 cycle, at 95° C. for 15 sec, 60° C. for 1 min for 40 cycles. HBsAg plasma levels were determined by ELISA assay using HBsAg ELISA kit (Autobio) according to the manual.

[1] = Description: Throughout the course of this experiment, weekly body weights were obtained for each animal. In addition, the animals were monitored for an increase in ALT enzyme activity as a sign of liver damage. Plasma samples from d0, d7, d21, and d35 were assayed for levels of ALT with ALT Activity Assay Kit (Sigma Chemical Co., MAK052).
[2] = defined from liver payload PK after SC doses
Text: Subcutaneous (SC) doses assessed are similar to those in FIGS. 6A and 6B. Liver payload PK was used as measure of conjugate uptake.
SC doses assessed are similar to those in FIGS. 6A and 6B. Liver payload PK was used as measure of conjugate uptake.

[3] = tested on: B cells in human PBMC and ASGR1pos target cell co-culture; experiment: CD86 on CD19pos B cells in human PBMC and ASGR1pos target cell co-culture (FACS); type: cell-based; details: 10 nM, 24 or 48 hours; FIG. 9 and FIG. 11
Description: Normal human donor PBMCs were co-cultured with cell lines expressing ASGR1 (ASGR1^pos) or not (ASGR1^neg) in the presence of 10 nM of either anti-ASGR1-TLR8 conjugate, the unconjugated antibody, an anti-digoxigenin-TLR8 conjugate or no treatment. After 24 or 48 hours of incubation, cells were harvested and processed for FACS analysis (BD FACSCelesta™ Flow Cytometer) by standard procedures for washing and incubation with immune cell lineage antibodies, that included anti-CD19 antibody to identify B cells, and antibodies to detect levels of cell activation molecules, including anti-CD86 antibody.

CD19^pos B cells = experiment: CD86 on CD19pos B cells after PBMC co-culture (flow cytometry); type: cell-based, human; details: co-culture of PBMC with ASGR1^pos cells, 10 nM, 24 and 48 hours
Description: FIG. 9 is a pair of graphs showing that ASGR1-TLR8 increases B cell expression of CD86, an activation marker indicative of increased antigen presentation and IgG secretion. CD86 levels on CD19^pos B cells were determined by flow cytometry after co-culture of PBMC with ASGR1^pos or ASGR1^neg cells in presence of test articles at 10 nM at 24 hours (left) and 48 hours (right). This ASGR1-TLR8 contains a mouse-human chimeric anti-ASGR1 antibody.
ASGR1-TLR8 conjugate activation increases B-cell expression of CD86, an activation marker indicating increased antigen presentation and IgG secretion. Abbreviations: monoclonal antibody (mAb), positive (pos), negative (neg), mean fluorescence intensity (MFI), hours (hrs). This ASGR1-TLR8 conjugate contains a humanized anti-ASGR1 antibody and has a DAR4.

[4] = tested on: NK cells, CD8+ T cells and CD4+ T cells in human PBMC and ASGR1pos target cell co-culture; experiment: IFNγ on NK cells, CD8+ and CD4+ T cells in human PBMC and ASGR1pos target cell co-culture (FACS); type: cell-based; details: 10 nM, 24 or 48 hours; FIG. 10
Description: Normal human donor PBMCs were co-cultured with cell lines expressing ASGR1 (ASGR1^pos) or not (ASGR1^neg) in the presence of 10 nM of either anti-ASGR1-TLR8 conjugate, the unconjugated antibody, an anti-digoxigenin-TLR8 conjugate or no treatment. After 24 or 48 hours of incubation, cells were harvested and processed for FACS analysis (BD FACSCelesta™ Flow Cytometer) by standard procedures for washing and incubation with immune cell lineage antibodies, that included antibodies to detect levels of cell activation molecules, including anti-IFNγ antibody.

[5] = 0.5 mg subcutaneous once a week for 5 weeks

B1: ASGR1-TLR8-S: "The surrogate (i.e., murinized ASGR1 mAb-C (having 4F3 CDRs)-IgG2a conjugated to a TLR7 agonist Compound 4.1)" (conjugate)
heavy: EVKLVESGGGLVKPGGSLKLSCAASGFTFSSYAMSWVRQTPEKRLEWVSAISGSGGSTYYADSVKGRFTISRDNAKNTLYLQMSSLRSEDTAMYYCAKDFSSRRWYLEYWGQGTTLTVSSAKTTAPSVYPLAPVCGDTTGSSVTLGCLVKGYFPEPVTLTWNSGSLSSGVHTFPAVLQSDLYTLSSSVTVTSSTWPSQSITCNVAHPASSTKVDKKIEPRGPTIKPCPPCKCPAPNLLGGPSVFIFPPKIKDVLMISLSPIVTCVVVDVSEDDPDVQISWFVNNVEVHTAQTQTHREDYNSTLRVVSALPIQHQDWMSGKEFKCKVNNKDLPAPIERTISKPKGSVRAPQVYVLPPPEEEMTKKQVTLTCMVTDFMPEDIYVEWTNNGKTELNYKNTEPVLDSDGSYFMYSKLRVEKKNWVERNSYSCSVVHEGLHNHHTTKSFSRTPGK
light: QAVLTQEPALSVSLGQTVTLTCQGDSLRSYYASWYQQKPGQAPVLVIYGKNNRPSGVPARFSGSLIGDKAALTITGAQTEDEAIYYCNSLERIGYLSYVFGGGTKVTVLRADAAPTVSIFPPSSEQLTSGGASVVCFLNNFYPKDINVKWKIDGSERQNGVLNSWTDQDSKDSTYSMSSTLTLTKDEYERHNSYTCEATHKTSTSPIVKSFNRNEC
modifications: conjugated to TLR7 agonist Compound 4.1; Synthetic sequence mzASGR1 mAb-C Heavy Chain (VH-IgG2a); Synthetic sequence mzASGR1 mAb-C Light Chain (VL-kappa)
AAV-HBV transduced mice; FIG. 8A
  HBsAg antigen: significantly lowered
AAV-HBV transduced mice; data not shown
  viral DNA: significantly lowered
HBV; [5]
  HBsAg antigen in plasma: significantly lowered; also recorded: reduces
  Viral DNA in plasma: significantly lowered
HBV; 0.5 mg/dose sc QWx5
  Anti-HBsAg seroconversion: drives seroconversion
[1]; [5]
  Body weight: gained weight like control animals
[1]; plasma d0, d7, d21, d35
  ALT enzyme activity: no increase

B2: ASGR1-S: a mouse conjugate surrogate for an ASGR1-TLR8 conjugate intended for therapeutic use in a human (conjugate)
heavy: B1 heavy
light: B1 light
modifications: conjugated to TLR agonist Compound 4.1; Synthetic sequence mzASGR1 mAb-C Heavy Chain (VH-IgG2a); Synthetic sequence mzASGR1 mAb-C Light Chain (VL-kappa)
notes: a mouse conjugate surrogate for an ASGR1-TLR8 conjugate intended for therapeutic use in a human
HBV; at 5 mg/kg and 10 mg/kg
  Seroconversion in the AAV-HBV model: observed in some animals
[2]
  Target payload liver concentration: approximately 100 ng/g

B3: ASGR1-TLR8: This ASGR1-TLR8 contains a mouse-human chimeric anti-ASGR1 antibody (conjugate)
heavy: B1 heavy
light: B1 light
modifications: TLR8 agonist conjugated; Synthetic sequence mzASGR1 mAb-C Heavy Chain (VH-IgG2a); Synthetic sequence mzASGR1 mAb-C Light Chain (VL-kappa)
notes: This ASGR1-TLR8 contains a mouse-human chimeric anti-ASGR1 antibody
[3]
  levels of CD86 on CD19pos cells (MFI): B cells were activated
CD19^pos B cells
  B cell expression of CD86: increases
[4]
  levels of IFNγ on NK cells, CD8+ T cells and CD4+ T cells (MFI): drives an IFNγ response
